{
  "source": "the DeepSol protein solubility set",
  "data": [
    {"assay": "soluble on expression in E. coli; label from the status in PepcDB or PDB records", "values": [
      {"sequence": "MGHHHHHHSHMAMRQTPLTCSGHTRPVVDLAFSGITPYGYFLISACKDGKPMLRQGDTGDWIGTFLGHKGAVWGATLNKDATKAATAAADFTAKVWDAVSGDELMTLAHKHIVKTVDFTQDSNYLLTGGQDKLLRIYDLNKPEAEPKEISGHTSGIKKALWCSEDKQILSADDKTVRLWDHATMTEVKSLNFNMSVSSMEYIPEGEILVITYGRSIAFHSAVSLDPIKSFEAPATINSASLHPEKEFLVAGGEDFKLYKYDYNSGEELESYKGHFGPIHCVRFSPDGELYASGSEDGTLRLWQTVVGKTYGLWKCVLPEEDSGELAKPK", "soluble on expression in E. coli": "not soluble"},
      {"sequence": "MKTSIIILTCNNLRYSRRCIESIKKYTEKEAYEIIVVDNNSNDGTRNWLSKQKAIKKIYNNVNVGFPRGCNMGIKVACGSEVLLLNNDVVVTHNWLNNLRNCLYSSYEIGAVGPISNNCSNGQKINVRYDSIEDMHRFSKKYNISNKKKWTEVKRLIGFCFLIKRNVIRKVGLFDERFTPGNFEDDDYCIRMRKIGFRLMLCKDTFVHHYGSVSFKNTQYLKLLEVNKSKLEKKWGKSYDKLVLEHHHHHH", "soluble on expression in E. coli": "not soluble"},
      {"sequence": "MSLRETIKVGEKAPAFTVAALNGVDSISLSDYKGKIVIVHLWSPTCPHCRETNKVLPGIIGPYSKKANLAYIMIAIDMDTLTLRPVIEEDKLNFAIHGYDPFDGSAKTMMDYEAPGTPCINIVDEKGNLVGVNVTDDQLKKYLKKRFSRNSEGHHHHHH", "soluble on expression in E. coli": "not soluble"},
      {"sequence": "MLGSRNIKFSVQIFKKRRSNCNVRCVVCGREIETGSLCGKCMVEKEEVAKIDEFEITVCSRCNLIRLGNRWVERSVEEVIEEMVLRNARVVEEFNVTEVAISQEHCVFRGEISGDEVKILVPLKYRINKVLCEKCSREAGGYYESIVQLRAAGRELSDEEIEKALEIVDEVISSAPEDQKAFISKLERKREGVNIFFGSRNIGKKVSRMIMKKLGGSITESKKLHTRIDGRDVYRFTYSVKLPEYREGDIVEKEGRFAVVRNSVAGKGLDILTGKTVNLGNERVAVRREDLKSGVVVNADPNAVEVVCEDGRLVTTPKPSGAEIGAEVKVFEINGKFFSVYEGGQSSEELEHHHHHH", "soluble on expression in E. coli": "soluble"},
      {"sequence": "TTPTVNATPKIHKRDYQKDVVYLYQFPRIDTVPNLSSFCLKTETFLRAFKIPHEVIETGSLRSRNGTLPFVELNGEHIPDSDLIEVRLRKHFQIPNLSAEDESHATALCRLADNHLLSIIIKYKAAEDAWYSALLRGVPGPNCLKTILKPIVRKLFMKKVHERTGGAIGNFTEDEAEMLCHKDLQAIQDSIKGKYLFGDKITSADCTVFGEVASAYYPFPNKFSRIIDSHYPKLHEYCDRIIEELY", "soluble on expression in E. coli": "not soluble"},
      {"sequence": "MSLKVAKDLVVSLAYQVRTEDGVLVDESPVSAPLDYLHGHGSLISGLETALEGHEVGDKFDVAVGANDAYGQYDENLVQRVPKDVFMGVDELQVGMRFLAETDQGPVPVEITAVEDDHVVVDGNHMLAGQNLKFNVEVVAIREATEEELAHGHVHGAHDHHHDHDHDGCCGGHGHDHGHEHGGEGCCGGKGNGGCGCEGGSHHHHHH", "soluble on expression in E. coli": "soluble"},
      {"sequence": "MAHHHHHHMEGQERRSVVEMTNTKTILLDPKDGWAPKAQFDFDASLWSIPPTHRIVHTFQDTKHKTYATQKDVYNLIAKDLVPHVFNGFNSCILTYGQTGSGKTYTMMGLYDPNASCGGDGEEGIIPRVSNDIFIILKERMEEEAKTRPPRDRTKFRVEVSFVEIYMERVRDLLDPALRHTRSNEHLQDARIRQDPYSGPFVEGVTKYEVENWTQCCTLLERGSQHRTTCATAVHNQSSRSHAIFQLTVVQEQVVPGNNKYALPAFKTQAGRINLVDLAGSERGGFQDYVKESAAINTSLLALRRVIDNLTERQNMLMEMAEAEITGKHYQERPLPQVPFRDSVLTWLLSDSIGGNARTTMVATLSPLVKNYADTLATLQWSSRARNLVTLVKMNDQALVHNGMASHAGALDNAVRIQRQNLDSLRQTLRSKQEAAQQLERQTKEHKKSLTKVRGRERAILRDRAALIIQRAFHRFLFYKKYEAYELHHAKLRGGNKRGTGDAADFQKIRKEAEAREQAAKEALKAEEALTDEKAAAVARYESNYEARALRRREAEERQARIVEVINGNELLRQYVEKRRQEVEALRSVADNENREREMAVKKLADMIKAIADHKTDQHKRKVEEDQKMLEMLRKKRDEVRSRRYEVLRQLQTLRERHKKVVKK", "soluble on expression in E. coli": "not soluble"},
      {"sequence": "MGSDKIHHHHHHMQNLHIFGEQKKTDWVIFENLEKVESKTLTEEGSAIRLNSGKYRKLKAISSVDPDVLYSTCKQFLPLNELEVLNKWEPSWGKVREDILNSKVELWNQCMHESACQYAPEVVSTKAYWKSVQQHIWFCTSSSELKEDIRTCFMLDFYITVQKEGRTKQSNLTRSWLSPINVQEEDLQELVLYTANAAMEKLDARPFPSGSYALILGPLAAPGIFHEVVGHGLEADIASIPQSAFHQRLGAMVGCEKVTIIDDPTKEGLPGSYSLDDEGTIAQQTTLIEKGRVVNYLSHLHTGHPTNGHGRVINYQHLPLVRMSNTFLLPGTDDPEEMVSDTEVGLYVKKAINGDVNMITGEFEIHVAEGYLIEKGQITSPILPTTLKGDGQKLLQSIDRVGNDFAIHSEVRGGCGKLGQSPLPVSAGSPTVRVLDWYVKGADR", "soluble on expression in E. coli": "not soluble"},
      {"sequence": "MDDQGGTRPDLLSLKPTAVPRLPLVLLARSRLVAKLDDTADTVLICAPAGYGKTLLLSQWLEDQAHKVAWLSPNQHNREALWPAMLQALRRSPAIPPGALRQFSGDEEDAVEVLGDLAQELASTGTSVRLVIDGVDGFSSDERERWIPALLNQSGPPIQLALVARDSTAVDAGPARLSGRIVELRSSDLAFSLEEINVLAAKTTTL", "soluble on expression in E. coli": "not soluble"},
      {"sequence": "MSAAAAPDTARSGRWRVDTDPERVERDLTCLVLTLVELVRQLVERQCVRRMDQGDLSDEQIETLGLTLMRLEEAMTELCERFDLSPSDLNLDLGPLGTLLPVD", "soluble on expression in E. coli": "not soluble"},
      {"sequence": "MKTIGLLGGMSWESTIPYYRLINEGIKQRLGGLHSAQMLLHSVDFHEIEECQRRGEWDKTGDILAEAALGLQRAGAEGIVLCTNTMHKVADAIESRCTLPFLHIADATGRAITGAGMTRVALLGTRYTMEQDFYRGRLTEQFSINCLIPEADERAKINQIIFEELCLGQFTEASRAYYAQVIARLAEQGAQGVIFGCTEIGLLVPEERSVLPVFDTAAIHAEDAVAFMLS", "soluble on expression in E. coli": "not soluble"},
      {"sequence": "MRITIVTIFPEMVEVIKKYGVIARAVERGIVEINVENLRDYTTDRHRTVDDYQYGGGYGMVMKPEPFFRFYESYVEKYGKPYVILTSPQGRIFNYKIAEELSKKDDIVIFCGRYEGIDERVMSIVDDEISIGDYILTGGELPAMVITDAVVRLVPGVVERESVERESFHQGLLDHPVYTRPYEYKGMKVPDVLLSGDHEKVELWRRKESIKKTLAKRPDLFLAKELDEMDKLAIIELFRELMEKC", "soluble on expression in E. coli": "soluble"},
      {"sequence": "MCGRFVLKATPEEIADYLDLIGLEDFPARFNIAPTQPILVVMEGEQQERGSNLPNRRAVLVRWGFMPGWVKDPKDFPLLINARSETAIGKASFRAAMRHRRVLIPATGFYEWRRPPKEEGGKAQPYFIRPKNGGIVAFAGLMETWSSADGSEVDTGAILTTAANAAIGRIHDRMPVVIAPEDFSRWLDCKTQEPREVADLMRPVQGDFFEMIPVSDKVNKVANVGADLIDPVPESAPLAKVRPAKDDGQMSLFLEHHHHHH", "soluble on expression in E. coli": "not soluble"},
      {"sequence": "MGSDKIHHHHHHMLRYHMQGFSGYGVQYSPFFDNRLAVAAGSNFGLVGNGKLFILEIDRSGRIVEVNSFLTQDCLFDLAWNESHENQVLVAQGDGTLRLFDTTFKEFPIAIFKEHEREVFSCNWNLVNRQNFLSSSWDGSIKIWSPLRKQSLMTLTPRPLEITKMVDPLNAIILKKKSFTGISKNRNCVYQAQFSPHDQNLVLSCSGNSYASLFDIRLPSGKNQNNFLVHSGLEALTCDFNKYRPYVVATGGVDNAIRIWDIRMLNKNESATIKRTVPGQLHNSSCINEIPNAHGLAIRKVTWSPHHSNILMSASYDMTCRIWRDLSNDGAKETYKTNSTDATKGSIFNFTQHSEFVFGADWSLWGKPGYVASTAWDGNLFVWNGLG", "soluble on expression in E. coli": "not soluble"},
      {"sequence": "GPGSMSLTTTARTPATVGKLSPSSGIFSIPDNISPVTAEEVPKSRDSLLTDMSLSELSRQSVLQSEPVVLRLCHVGKSYPIAGSDERVVALKDITLAESKHSNAATTKQGASTTNCLQRSNLPPPFAPVRRGEFVMIRGPSGGGKTTLLNIIGSIDSCTEGNIELNGRIIDKDTKESVLADIRLKNIGFVFQTFNLIATMTAAENVELPMTLLGTMSTKAMRLRSRQLLTLVGLRNRINHLPSELSGGEQQRVTIARSLANNPSILLLDEPTGDLDTANTIEVMDLLMRINRRTKTTCIMVTHNPDIECYADRILYVSDGRFAKEVFNALPMCLDLENYTEYLAAKERAITGFAGVGDVEDDSEPRATAAMAECIGTKGCEIEKPNSSPVLMEPLTEGQSACSIVSPAASRSAVVQPLCPPAAATAPSVNGVTQTVLDTTHHGSASVPPASASSALLQREEREVPNGL", "soluble on expression in E. coli": "soluble"},
      {"sequence": "MSLRLLPQPQQCVLAKGYFIVGKMQLSTPVLSQEWKQFVTEMGGTLTDQSASSINIKLVDAIDNVSVNKEEAYRLTITPKAITVEAVAERGVYWAMQTLYQLKEEKGKKNRLQCATITDWPAFRIRGFMQDVGRSYLSLEELKREIAILSRFKINTFHWHLTENQAWRLESKIFPMLNDSTNMTRMAGKYYTLEEARELTEFCKAHQVLLIPEIDMPGHSAAFIRTFRHDMQSPEGMKILKLLLDEICETFDVPYLHIGTDEVHFTNPQFVPEMVAYVRDKGKKVISWNPGWKYKAGEIDMMQLWSYRGKAQQGIPAIDSRFHYLNHFDTFGDIIALYNSRIYNADMGSDDLAGVIMGIWNDRLIDKEWNMVLENNFYPNMLAIAERSWRGGGTEYFDKQGTILPVDENSEVFRNFEDFESRMLWYKEHLFKGYPFAYVKQTHVKWNITDAFPNEGDLTKVFPPEEELKDSYTYEGKQYGVRPAIGAGIYLRHVWGKIVPAFYKDPQENHTAYAYTYVYSSKTQEVGLWAEFQNYGRSENDLPPLPGKWDYKESRIWINDQEILPPVWSATHLVKSSETALGNENCVARPPLRVHLHKGWNKVLLKLPVGKFSTNEVRLVKWMFTAVFVTPDGDKAVEGLIYSPEKEGHHHHHH", "soluble on expression in E. coli": "soluble"},
      {"sequence": "NHPTRPCTCAPGQVEKYLSRISGPLLDRIDIQVEITPVPFEKISDSRPAESSEKIRQRVVAAREIQSKRFADYSGVHCNAQMDDKLMNRYALPDEKGLQRLRTAMERFDLSARAYGRILKVARTIADLAGSEDVGGEHIAEAIGYRNLDRENWGKA", "soluble on expression in E. coli": "not soluble"},
      {"sequence": "LAAGQLADLVVLSKDYFSVAEEEIKGIESVLTVVDGKVVYAAGHFSPLAPPPIPVLPEWSPVVKVPGHYRSAPPATAKIGAMVQMHQCCGSCGVHGHQHDIARKSSIPVSDEQAFWGVLGCSCFA", "soluble on expression in E. coli": "not soluble"},
      {"sequence": "MTYWICITNRENWEVIKRHNVWGVPKKHKNTLSRVKPGDKLVIYVRQEKDKEGNLLEPKIVGIYEVTSEPYVDFSRIFKPHRGGKETYPYRVKIKPIKIGEINFKPLINDLKFIKNKKRWSMHFFGKAMRELPEEDYKLIEKLLL", "soluble on expression in E. coli": "soluble"},
      {"sequence": "MKVRILGSGTSTGVPQIGCTCPVCTSADPKDNRLRASAIVETEDARILIDCGPDFRAQVLHLPFEKIDGVLITHEHYDHVGGLDDLRPFCRFGAVPIYAEEYVARALRLRMPYCFVDHRYPGVPDIPLQEIEVGHAFSIHHTEVVPLRVMHGRLPILGYRIGRLGYITDMLTMPEESYEQLEGIDVLIMNALRIAPHPTHQNLEEALKVAERIRAKETYFIHMSHDMGLHKKVEKELPENIHLTYDGMEIIF", "soluble on expression in E. coli": "not soluble"},
      {"sequence": "MSLETILLNINISADKTSPKTLRKQLNKVLTSLDVNIQTSRKVELVTSEIVTNIVTHNNDNHTNITLKFGKCKNGYWLDIYDNGAEFDPLSGDIPELNDEFLLFESSRGLYLIRSQCDFIEYEYLNKIKNNRIHCVWYDENINAGPTILIIDDSEIELAIVSNLLSDQFSVLQASNGLDAISILDSHSIDIIISDLHMPTINGVDLYVYLQKHLDKIIPFIFLTSDTNEMTGLREDAYRIGADDVLTKPISQQMLVNAIERALKRNNEGHHHHHH", "soluble on expression in E. coli": "soluble"}
    ]}
  ]
}
